According to patent US20250257128A1:

Columns and labels:
human CD47 (human) [1] = target: human CD47 (human) (UniProt Q08722); assay: flow cytometry on human red blood cells, antibody at 15 µg/mL (negative control)
human CD47 (human) [2] = target: human CD47 (human) (UniProt Q08722); assay: flow cytometry on human red blood cells, antibody at 150 µg/mL (negative control)

Chain of human CD47 (human) (Q08722 19-323): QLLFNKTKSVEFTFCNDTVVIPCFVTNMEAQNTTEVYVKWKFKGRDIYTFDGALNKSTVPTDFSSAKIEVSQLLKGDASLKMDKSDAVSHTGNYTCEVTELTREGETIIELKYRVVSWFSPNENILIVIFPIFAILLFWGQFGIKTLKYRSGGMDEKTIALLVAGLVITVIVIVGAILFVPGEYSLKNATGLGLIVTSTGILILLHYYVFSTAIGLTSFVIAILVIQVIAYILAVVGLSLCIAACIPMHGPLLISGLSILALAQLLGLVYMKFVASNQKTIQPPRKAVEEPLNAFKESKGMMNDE

Human IgG1 isotype negative control (antibody)
MFI (human CD47 (human) [1]): 303 MFI | MFI (human CD47 (human) [2]): 901 MFI
